How the values were obtained:
[1] = biological target: giantin (rat hepatocytes) (rat (endogenous in primary hepatocytes)); experiment: Western blot of lysates
[2] = biological target: giantin (human (endogenous in HeLa, LNCaP, PC-3, liver tissue)) (UniProt Q14789); experiment: Western blot of lysates; settings: remark: other sources report otherwise

giantin (rat hepatocytes) (natural protein)
stoichiometry N [1]: 2

giantin, Q14789 1-3259
stoichiometry N [2]: 2

From doi:10.1101/296517
